Data from IntAct's records for PubMed 18264113.

B1: Histone-lysine N-methyltransferase EHMT2 (Mus musculus), Q9Z148-1 (parent)
chain: MRGLPRGRGLMRARGRGRAAPTGGRGRGRGGAHRGRGRPRSLLSLPRAQASWAPQLPAGLTGPPVPCLPSQGEAPAEMGALLLEKEPRGAAERVHSSLGDTPQSEETLPKANPDSLEPAGPSSPASVTVTVGDEGADTPVGAASLIGDEPESLEGDGGRIVLGHATKSFPSSPSKGGACPSRAKMSMTGAGKSPPSVQSLAMRLLSMPGAQGAATAGPEPSPATTAAQEGQPKVHRARKTMSKPSNGQPPIPEKRPPEVQHFRMSDDMHLGKVTSDVAKRRKLNSGSLSEDLGSAGGSGDIILEKGEPRPLEEWETVVGDDFSLYYDAYSVDERVDSDSKSEVEALAEQLSEEEEEEEEEEEEEEEEEEEEEEEEEDEESGNQSDRSGSSGRRKAKKKWRKDSPWVKPSRKRRKREPPRAKEPRGVNGVGSSGPSEYMEVPLGSLELPSEGTLSPNHAGVSNDTSSLETERGFEELPLCSCRMEAPKIDRISERAGHKCMATESVDGELLGCNAAILKRETMRPSSRVALMVLCEAHRARMVKHHCCPGCGYFCTAGTFLECHPDFRVAHRFHKACVSQLNGMVFCPHCGEDASEAQEVTIPRGDGGTPPIGTAAPALPPLAHDAPGRADTSQPSARMRGHGEPRRPPCDPLADTIDSSGPSLTLPNGGCLSAVGLPPGPGREALEKALVIQESERRKKLRFHPRQLYLSVKQGELQKVILMLLDNLDPNFQSDQQSKRTPLHAAAQKGSVEICHVLLQAGANINAVDKQQRTPLMEAVVNNHLEVARYMVQLGGCVYSKEEDGSTCLHHAAKIGNLEMVSLLLSTGQVDVNAQDSGGWTPIIWAAEHKHIDVIRMLLTRGADVTLTDNEENICLHWASFTGSAAIAEVLLNAQCDLHAVNYHGDTPLHIAARESYHDCVLLFLSRGANPELRNKEGDTAWDLTPERSDVWFALQLNRKLRLGVGNRAVRTEKIICRDVARGYENVPIPCVNGVDGEPCPEDYKYISENCETSTMNIDRNITHLQHCTCVDDCSSSNCLCGQLSIRCWYDKDGRLLQEFNKIEPPLIFECNQACSCWRSCKNRVVQSGIKVRLQLYRTAKMGWGVRALQTIPQGTFICEYVGELISDAEADVREDDSYLFDLDNKDGEVYCIDARYYGNISRFINHLCDPNIIPVRVFMLHQDLRFPRIAFFSSRDIRTGEELGFDYGDRFWDIKSKYFTCQCGSEKCKHSAEAIALEQSRLARLDPHPELLPDLSSLPPINT

Variants of: B1
Conditions: with gfi1_human GFI1, Q99684
Chain of gfi1_human GFI1, Q99684 (Q99684 whole entry): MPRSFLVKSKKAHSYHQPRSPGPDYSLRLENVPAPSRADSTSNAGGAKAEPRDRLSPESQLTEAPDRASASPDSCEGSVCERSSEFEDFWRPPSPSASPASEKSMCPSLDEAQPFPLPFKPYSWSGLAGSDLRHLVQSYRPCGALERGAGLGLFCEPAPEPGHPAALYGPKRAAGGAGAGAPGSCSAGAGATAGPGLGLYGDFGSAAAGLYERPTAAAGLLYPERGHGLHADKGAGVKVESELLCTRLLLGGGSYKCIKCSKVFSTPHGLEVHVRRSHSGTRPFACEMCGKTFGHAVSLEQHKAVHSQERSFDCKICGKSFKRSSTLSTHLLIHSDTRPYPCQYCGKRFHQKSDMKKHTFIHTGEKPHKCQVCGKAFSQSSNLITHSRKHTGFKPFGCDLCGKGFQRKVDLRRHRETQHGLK

Variant	effect of a mutation on the interaction
E847A	decreasing interaction
W839A	decreasing interaction

Variants of: B1
Conditions: with ncoa2_mouse Ncoa2, Q61026
Chain of ncoa2_mouse Ncoa2, Q61026 (Q61026 whole entry): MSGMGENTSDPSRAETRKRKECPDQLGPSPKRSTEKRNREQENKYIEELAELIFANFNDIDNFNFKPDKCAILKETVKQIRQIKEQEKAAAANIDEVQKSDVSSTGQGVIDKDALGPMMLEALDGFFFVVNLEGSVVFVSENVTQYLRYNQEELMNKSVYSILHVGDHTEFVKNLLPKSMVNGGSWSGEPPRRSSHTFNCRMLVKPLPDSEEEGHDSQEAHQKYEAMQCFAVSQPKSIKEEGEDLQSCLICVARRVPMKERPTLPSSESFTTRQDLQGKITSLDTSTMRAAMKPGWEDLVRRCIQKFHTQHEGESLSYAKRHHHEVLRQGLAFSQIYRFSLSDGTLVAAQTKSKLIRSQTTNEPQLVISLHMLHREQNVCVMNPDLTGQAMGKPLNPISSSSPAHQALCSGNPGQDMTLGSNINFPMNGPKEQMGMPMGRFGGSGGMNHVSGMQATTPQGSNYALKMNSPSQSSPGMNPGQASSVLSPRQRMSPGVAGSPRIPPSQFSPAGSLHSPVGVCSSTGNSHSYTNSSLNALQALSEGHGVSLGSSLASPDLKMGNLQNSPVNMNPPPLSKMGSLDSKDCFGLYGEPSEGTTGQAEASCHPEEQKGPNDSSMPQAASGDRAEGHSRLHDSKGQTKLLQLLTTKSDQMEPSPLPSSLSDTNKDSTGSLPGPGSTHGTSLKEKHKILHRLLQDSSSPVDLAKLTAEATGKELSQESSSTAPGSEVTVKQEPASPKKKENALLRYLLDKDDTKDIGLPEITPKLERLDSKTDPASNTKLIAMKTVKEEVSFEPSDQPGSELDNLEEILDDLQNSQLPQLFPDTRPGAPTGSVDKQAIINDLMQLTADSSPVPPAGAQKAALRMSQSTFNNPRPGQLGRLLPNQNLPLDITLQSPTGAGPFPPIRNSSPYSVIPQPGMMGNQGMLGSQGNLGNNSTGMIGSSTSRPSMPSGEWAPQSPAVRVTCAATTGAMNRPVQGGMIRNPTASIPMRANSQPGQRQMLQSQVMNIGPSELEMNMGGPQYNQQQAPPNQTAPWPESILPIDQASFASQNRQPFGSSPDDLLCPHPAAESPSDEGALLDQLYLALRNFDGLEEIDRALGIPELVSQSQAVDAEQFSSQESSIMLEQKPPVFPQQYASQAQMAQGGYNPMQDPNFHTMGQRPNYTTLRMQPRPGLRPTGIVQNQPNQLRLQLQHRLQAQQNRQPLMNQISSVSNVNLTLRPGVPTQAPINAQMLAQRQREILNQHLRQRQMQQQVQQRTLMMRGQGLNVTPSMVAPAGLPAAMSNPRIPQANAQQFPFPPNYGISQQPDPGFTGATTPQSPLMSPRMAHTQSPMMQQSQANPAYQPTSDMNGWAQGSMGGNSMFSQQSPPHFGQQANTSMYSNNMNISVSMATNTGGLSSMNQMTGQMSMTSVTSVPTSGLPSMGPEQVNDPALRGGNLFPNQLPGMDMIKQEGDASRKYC

Variant	effect of a mutation on the interaction
E847A	decreasing interaction
